Changes are numbered by the printed parent chain. Names and notes keep the numbering of the source.

From patent US20120129766A1 (IRM, published 2012) come the findings set out here.

First the molecules themselves.
T1: human β-klotho (human, UniProt Q86Z14 1-1044)
T1 sequence (looked up): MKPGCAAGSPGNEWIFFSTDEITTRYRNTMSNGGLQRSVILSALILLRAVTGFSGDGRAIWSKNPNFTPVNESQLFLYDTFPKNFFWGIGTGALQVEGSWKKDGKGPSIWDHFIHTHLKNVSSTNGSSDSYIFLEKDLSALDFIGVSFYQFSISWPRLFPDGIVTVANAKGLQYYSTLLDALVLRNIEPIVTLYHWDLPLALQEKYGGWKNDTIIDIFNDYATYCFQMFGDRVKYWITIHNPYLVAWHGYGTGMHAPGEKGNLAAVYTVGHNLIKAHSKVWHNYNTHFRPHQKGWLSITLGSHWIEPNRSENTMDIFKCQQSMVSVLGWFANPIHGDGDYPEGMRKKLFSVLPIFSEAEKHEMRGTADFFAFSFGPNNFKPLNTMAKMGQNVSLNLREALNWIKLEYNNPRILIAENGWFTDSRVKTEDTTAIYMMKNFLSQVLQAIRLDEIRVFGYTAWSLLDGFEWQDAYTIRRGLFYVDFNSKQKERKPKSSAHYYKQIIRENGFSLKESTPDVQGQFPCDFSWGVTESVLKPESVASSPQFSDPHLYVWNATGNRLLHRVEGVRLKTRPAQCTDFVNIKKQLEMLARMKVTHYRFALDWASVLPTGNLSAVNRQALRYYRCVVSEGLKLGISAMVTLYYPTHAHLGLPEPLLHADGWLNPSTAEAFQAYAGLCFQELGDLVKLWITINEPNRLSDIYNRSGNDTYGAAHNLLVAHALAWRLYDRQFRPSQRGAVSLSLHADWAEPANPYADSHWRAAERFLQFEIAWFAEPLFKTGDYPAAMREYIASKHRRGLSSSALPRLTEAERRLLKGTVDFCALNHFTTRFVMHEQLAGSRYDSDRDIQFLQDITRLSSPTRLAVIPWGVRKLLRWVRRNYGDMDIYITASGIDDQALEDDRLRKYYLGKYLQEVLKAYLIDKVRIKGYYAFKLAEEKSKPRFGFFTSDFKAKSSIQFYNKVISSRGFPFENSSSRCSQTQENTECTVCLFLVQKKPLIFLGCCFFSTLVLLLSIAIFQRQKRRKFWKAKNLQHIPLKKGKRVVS

B1: hFGF21(33-209)-V5 (ligand)
chain: DSSPLLQFGGQVRQRYLYTDDDQQTEAHLEIREDGTVGGAAHQSPESLLQLKALKPGVIQILGVKASRFLCQKPDGALYGSLHFDPEACSFRELLLENGYNVYQSEAHGLPLHLPGNRSPHRDPASQGPARFLPLPGLPPALPEPPGILAPQPPDVGSSDPLAMVGPSQARSPSYAS
B2: hFGF21(33-209)-V53 (ligand)
chain: B1 chain with D22A, Q24E, Q50E, A66T, L142P, A170G
B3: hFGF21(33-209)-V54 (ligand)
chain: B1 chain with D22A, Q50E, A66T, A77T, L142P, A170G
B4: hFGF21(33-209)-V13 (ligand)
chain: B1 chain with S126P, A170G
B5: hFGF21(33-209)-V60 (ligand)
chain: B1 chain with D22A, Q23C, Q50E, A66T, K73R, A77T, G116C, Q127R, L142P, A170G
B6: hFGF21(33-209)-V12 (ligand)
chain: B1 chain with K65Q, A66T, S126P, A170G
B7: hFGF21(33-209)-V14-pool2 (ligand)
chain: B1 chain with D22A, Q24E, Q50E, A66T, N98D, S126P, A170G
B8: hFGF21(33-209)-V62 (ligand)
chain: B1 chain with D22A, Q23C, A66T, K73R, A107T, G116C, R118K, L142P
B9: hFGF21(33-209)-V64 (ligand)
chain: B1 chain with D22A, Q23C, H42D, A66T, K73R, A77T, A107T, G116C, Q127R, L142P
B10: hFGF21(33-209)-V7 (ligand)
chain: B1 chain with D22A, Q24E
B11: hFGF21(33-209)-V10 (ligand)
chain: B1 chain with D22A, Q24E, A107T, R118K
B12: hFGF21(33-209)-V55 (ligand)
chain: B1 chain with D22A, V37A, Q50E, A66T, L142P, A170G
B13: hFGF21(33-209)-V16 (ligand)
chain: B1 chain with D22A, Q24E, S126P, A170G
B14: hFGF21(33-209)-V14pool 1-N-40 kDa bPEG-AL (ligand)
chain: B1 chain with D22A, Q24E, Q50E, A66T, S126P, A170G
modifications: 40 kDa branched PEG (aldehyde reagent) on the N-terminal amine
B15: hFGF21(33-209)-V63 (ligand)
chain: B1 chain with D22A, Q23C, A66T, K73R, A107T, G116C, Q127R, L142P
B16: hFGF21(33-209)-V11 (ligand)
chain: B1 chain with Q50E, A66T, S126P, A170G
B17: hFGF21(33-209)-V8 (ligand)
chain: B1 chain with D22A, Q24E, K65Q, A66T, A107T, R118K
B18: hFGF21(33-209)-V58 (ligand)
chain: B1 chain with D22A, A66T, K73R, A77T, A107T, L142P
B19: hFGF21(33-209)-V76 (ligand)
chain: B1 chain with D22A, Q24E, Q50E, A66T, N98D, R122C, S126P, A170G
B20: hFGF21(33-209)-V59 (ligand)
chain: B1 chain with D22A, Q23C, Q50E, A66T, K73R, G116C, L142P, A170G
B21: hFGF21(33-209)-V18 (ligand)
chain: B1 chain with D22A, A27S, K65Q, A66T, S126P, A170G
B22: hFGF21(33-209)-V56 (ligand)
chain: B1 chain with D22A, A107T, R118K, L142P
B23: hFGF21(33-209)-V73 (ligand)
chain: B1 chain with D22A, Q24E, Q50E, A66T, N98E, S126P, A170G
B24: hFGF21(33-209)-V76-154C-40 kDa-bPEG-MA (ligand)
chain: B1 chain with D22A, Q24E, Q50E, A66T, N98D, R122C, S126P, A170G
modifications: 40 kDa branched maleimido-PEG on Cys 154 (numbered on SEQ ID NO:1)
B25: hFGF21(33-209)-V14-R154C, L174P (ligand)
chain: B1 chain with D22A, Q24E, Q50E, A66T, R122C, S126P, L142P, A170G
B26: hFGF21(33-209)-V61 (ligand)
chain: B1 chain with D22A, Q23C, V37A, Q50E, A66T, K73R, G116C, Q127R, L142P, A170G
B27: hFGF21(33-209)-V14-pool1 (ligand)
chain: B1 chain with D22A, Q24E, Q50E, A66T, S126P, A170G
B28: hFGF21(33-209)-V14-L174P, R154C-40 kDa bPEG-MA (ligand)
chain: B1 chain with D22A, Q24E, Q50E, A66T, R122C, S126P, L142P, A170G
modifications: 40 kDa branched maleimido-PEG on Cys 154 (numbered on SEQ ID NO:1)
B29: hFGF21(33-209)-V57 (ligand)
chain: B1 chain with D22A, K73R, A107T, L142P
B30: hFGF21(33-209)-V73-N-40 kDa bPEG-AL (ligand)
chain: B1 chain with D22A, Q24E, Q50E, A66T, N98E, S126P, A170G
modifications: 40 kDa branched PEG (aldehyde reagent) on the N-terminal amine
B31: hFGF21(33-209)-V15 (ligand)
chain: B1 chain with D22A, Q24E, K65Q, A66T, S126P, A170G
B32: hFGF21(33-209)-V52 (ligand)
chain: B1 chain with L6V, D22A, A66T, G109S, R118K, A163S

In the assay the target is T1, human β-klotho. In words: cell-based or functional assay.
Consider B1, for which the “EC50 (nM), pERK In Cell Western” value was found to be 26 nM and the “Fold-WT (EC50 of variant / EC50 of FGF21-WT)” value turned out to be 9.3 fold.

In the case of B2, the “EC50 (nM), pERK In Cell Western” value came out at 4.2 nM and the “Fold-WT (EC50 of variant / EC50 of FGF21-WT)” value came out at 1.3 fold.

Consider B3, for which the “EC50 (nM), pERK In Cell Western” value is 25 nM and the “Fold-WT (EC50 of variant / EC50 of FGF21-WT)” value worked out at 9.2 fold.

Regarding B4, the “EC50 (nM), pERK In Cell Western” value worked out at 11 nM and the “Fold-WT (EC50 of variant / EC50 of FGF21-WT)” value amounted to 4 fold.

Regarding B5, the “EC50 (nM), pERK In Cell Western” value was 7.6 nM and the “Fold-WT (EC50 of variant / EC50 of FGF21-WT)” value amounted to 2.2 fold.

Consider B6, for which the “EC50 (nM), pERK In Cell Western” value is 14 nM and the “Fold-WT (EC50 of variant / EC50 of FGF21-WT)” value came out at 5 fold.

With B7, the “EC50 (nM), pERK In Cell Western” value turned out to be 5.3 nM and the “Fold-WT (EC50 of variant / EC50 of FGF21-WT)” value worked out at 1.4 fold.

For the molecule B8, the “EC50 (nM), pERK In Cell Western” value was found to be 24 nM and the “Fold-WT (EC50 of variant / EC50 of FGF21-WT)” value came to 6.8 fold.

For the molecule B9, the “EC50 (nM), pERK In Cell Western” value worked out at 2.9 nM and the “Fold-WT (EC50 of variant / EC50 of FGF21-WT)” value was determined as 0.8 fold.

As for B10, the “EC50 (nM), pERK In Cell Western” value came out at 19 nM and the “Fold-WT (EC50 of variant / EC50 of FGF21-WT)” value was determined as 6.8 fold.

In the case of B11, the “EC50 (nM), pERK In Cell Western” value amounted to 18 nM and the “Fold-WT (EC50 of variant / EC50 of FGF21-WT)” value is 3.3 fold.

In the case of B12, the “EC50 (nM), pERK In Cell Western” value turned out to be 34 nM and the “Fold-WT (EC50 of variant / EC50 of FGF21-WT)” value was found to be 13 fold.

For the molecule B13, the “EC50 (nM), pERK In Cell Western” value amounted to 11 nM and the “Fold-WT (EC50 of variant / EC50 of FGF21-WT)” value was found to be 6.5 fold.

For the molecule B14, the “EC50 (nM), pERK In Cell Western” value worked out at 107 nM and the “Fold-WT (EC50 of variant / EC50 of FGF21-WT)” value is 22 fold.

For B15, the “EC50 (nM), pERK In Cell Western” value is 13 nM and the “Fold-WT (EC50 of variant / EC50 of FGF21-WT)” value came to 3.7 fold.

Regarding B16, the “EC50 (nM), pERK In Cell Western” value turned out to be 28 nM and the “Fold-WT (EC50 of variant / EC50 of FGF21-WT)” value came out at 18 fold.

On to B17, for which the “EC50 (nM), pERK In Cell Western” value was determined as 14 nM and the “Fold-WT (EC50 of variant / EC50 of FGF21-WT)” value came to 5 fold.

As for B18, the “EC50 (nM), pERK In Cell Western” value worked out at 3.6 nM and the “Fold-WT (EC50 of variant / EC50 of FGF21-WT)” value was found to be 2.6 fold.

On to B19, for which the “EC50 (nM), pERK In Cell Western” value worked out at 3.4 nM and the “Fold-WT (EC50 of variant / EC50 of FGF21-WT)” value came out at 0.47 fold.

For the molecule B20, the “EC50 (nM), pERK In Cell Western” value is 6.5 nM and the “Fold-WT (EC50 of variant / EC50 of FGF21-WT)” value was 1.6 fold.

Turning to B21, the “EC50 (nM), pERK In Cell Western” value amounted to 15 nM and the “Fold-WT (EC50 of variant / EC50 of FGF21-WT)” value stood at 2.7 fold.

For B22, the “EC50 (nM), pERK In Cell Western” value came to 37 nM and the “Fold-WT (EC50 of variant / EC50 of FGF21-WT)” value was 14 fold.

Regarding B23, the “EC50 (nM), pERK In Cell Western” value turned out to be 5.8 nM and the “Fold-WT (EC50 of variant / EC50 of FGF21-WT)” value was found to be 1.7 fold.

With B24, the “EC50 (nM), pERK In Cell Western” value amounted to 8.3 nM and the “Fold-WT (EC50 of variant / EC50 of FGF21-WT)” value was found to be 2.4 fold.

With B25, the “EC50 (nM), pERK In Cell Western” value amounted to 6.7 nM and the “Fold-WT (EC50 of variant / EC50 of FGF21-WT)” value is 1 fold.

As to B26, the “EC50 (nM), pERK In Cell Western” value was determined as 22 nM and the “Fold-WT (EC50 of variant / EC50 of FGF21-WT)” value was 6.3 fold.

On to B27, for which the “EC50 (nM), pERK In Cell Western” value worked out at 6.7 nM and the “Fold-WT (EC50 of variant / EC50 of FGF21-WT)” value stood at 1.4 fold.

As to B28, the “EC50 (nM), pERK In Cell Western” value was determined as 21 nM and the “Fold-WT (EC50 of variant / EC50 of FGF21-WT)” value was determined as 3.3 fold.

On to B29, for which the “EC50 (nM), pERK In Cell Western” value was found to be 22 nM and the “Fold-WT (EC50 of variant / EC50 of FGF21-WT)” value amounted to 5.4 fold.

Turning to B30, the “EC50 (nM), pERK In Cell Western” value is 191 nM and the “Fold-WT (EC50 of variant / EC50 of FGF21-WT)” value amounted to 66 fold.

Regarding B31, the “EC50 (nM), pERK In Cell Western” value was 3.3 nM and the “Fold-WT (EC50 of variant / EC50 of FGF21-WT)” value was found to be 1.2 fold.

Consider B32, for which the “EC50 (nM), pERK In Cell Western” value was determined as 66 nM and the “Fold-WT (EC50 of variant / EC50 of FGF21-WT)” value came out at 94 fold.
